Experiment [1] has as its target T1, GAD65 peptide on HLA-DRA*01:01 / HLA-DRB1*04:01 (human).
T1 peptide: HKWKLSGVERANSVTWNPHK
Kind of experiment: proliferation.

Experiment [2] concerns the target T2, Influenza A MP54 (influenza M protein) peptide on HLA-DRA*01:01 / HLA-DRB1*04:01 (human).
T2 peptide: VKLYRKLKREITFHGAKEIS
Kind of experiment: activation reporter or marker.

Experiment [3] has as its target T2, Influenza A MP54 (influenza M protein) …. Description: proliferation.

B1: P196-1 (TCR)
alpha TRAV29DV5 TRAJ45 CDR3: CAASRYSGGGADGLTF
beta TRBV12-4 TRBJ1-1 CDR3: CASSLQGGNTEAFF
B1: the binding result in experiment [1] and in experiment [2] was “recognises” in each case.

B2: Clone 81 (TCR)
alpha TRAV29DV5 TRAJ45 CDR3: CAASRYSGGGADGLTF
beta TRBV12-4 TRBJ1-1 CDR3: CASSPQGGNTEAFF
Consider B2, for which the binding result in experiment [3] and in experiment [1] was “recognises” throughout.

B3: Clone 566 (TCR)
alpha TRAV29DV5 TRAJ45 CDR3: CAASRYSGGGADGLTF
beta TRBV12-4 TRBJ1-1 CDR3: CASSVQGGNTEAFF
Turning to B3, the binding result in experiment [3] and in experiment [1] was “recognises” in each case.

Source of the values: publication PMC11176301 (2024).
